The values that follow come from paper PMC6469808.

Assay [1] deals with Zika virus NS5 Y25A/K28S/K29A variant, full length, C-terminal 6xHis tag (Zika virus (Suriname human isolate Z1106033)).
In assay [2] the target is Zika virus NS5, full length, wild type (Suriname ZIKV human isolate Z1106033), C-terminal 6xHis tag (Zika virus (Suriname human isolate Z1106033)). Description: AUC; sedimentation velocity, 20 °C, 43,000 rpm, 0.5 mg/ml protein; 50 mM HEPES pH 7.0, 500 mM NaCl, 5% glycerol, 0.4 mM DTT.
Assay [3] shares this target. As to the kind of experiment: SAXS; 6 mg/ml NS5 (highest concentration); 50 mM MES pH 6.0, 500 mM NaCl, 10% glycerol, 5 mM DTT; 10 °C.
Assay [4] shares this target. Description: SEC-MALS; Superdex 200 10/300 GL; 50 mM MES pH 6.0, 500 mM NaCl, 10% glycerol, 5 mM DTT; monomer-dimer. For orientation: Size exclusion chromatography separates by hydrodynamic size, large species first.
Assay [5] has the same target. As to the kind of experiment: SEC-MALS; Superdex 200 10/300 GL; 50 mM HEPES pH 7.0, 500 mM NaCl, 10% glycerol, 5 mM DTT; monomer-dimer.

In the case of “Zika virus NS5 Y25A/K28S/K29A variant, full length, C-terminal 6xHis tag (natural protein)”, the RNA primer extension (polymerase elongation) activity at 900, 180, 18, 9 nM enzyme, variant against wild type NS5 in assay [1] was determined as 3 fold.
The stoichiometry N is a count of units in the complex or per binding partner. As to “Zika virus NS5, full length, wild type (Suriname ZIKV human isolate Z1106033), C-terminal 6xHis tag (from UniProt A0A024B7W1 2521-3423) (natural protein)”, in assay [2], the percent abundance of the dimer species turned out to be 12%, the percent of the sample as oligomer is 5.1% and the stoichiometry N is 2. The stoichiometry N in assay [3] came out at 2. Moreover, in assay [4], the percent of the sample mass in the dimer peak amounted to 4% and the stoichiometry N was found to be 2. In addition, in assay [5], the percent abundance of the dimer peak came to 10.4% and the stoichiometry N was found to be 2.
